# B1: G2/mitotic-specific cyclin cig2 (Schizosaccharomyces pombe (strain ATCC 38366 / 972)), P36630 (parent)
# chain: MALYSISKPVGSKINKHSYQDENTLVGKQALSKGTEKTKLSTNFEINLPRRTVLSDVSNVGKNNADEKDTKKAKRSFDESNLSTNEEADKPVESKFVKKLKVYSKNADPSVETLQKDRVSNVDDHLSSNPLMAEEYAPEIFEYIRKLDLKCLPNPKYMDQQKELTWKMREILNEWLVEIHSNFCLMPETLYLAVNIIDRFLSRRSCSLSKFQLTGITALLIASKYEEVMCPSIQNFVYMTDGAFTVEDVCVAERYMLNVLNFDLSYPSPLNFLRKISQAEGYDAQTRTLGKYLTEIYLFDHDLLRYPMSKIAAAAMYLSRRLLRRGPWTPKLVESSGGYEEHELKEIAYIMLHYHNKPLEHKAFFQKYSSKRFLKASIFVHQLVRQRYSVNRTDDDDLQSEPSSSLTNDGH
# Variants of: B1
# Conditions: with cdk1_schpo cdc2, P04551
# Sequence of cdk1_schpo cdc2, P04551 (P04551 whole entry): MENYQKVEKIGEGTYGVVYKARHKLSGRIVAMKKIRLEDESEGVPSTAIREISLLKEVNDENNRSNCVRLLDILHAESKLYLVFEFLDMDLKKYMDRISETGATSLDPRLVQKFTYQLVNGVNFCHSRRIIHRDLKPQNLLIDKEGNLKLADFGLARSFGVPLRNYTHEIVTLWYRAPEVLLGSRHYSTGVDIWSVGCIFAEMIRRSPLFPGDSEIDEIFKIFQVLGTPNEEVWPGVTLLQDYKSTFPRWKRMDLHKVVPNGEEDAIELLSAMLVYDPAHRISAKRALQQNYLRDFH
row,effect of a mutation on the interaction,Variant
1,disrupting interaction,R169A;E170A;I171A

# Reference: IntAct's records for PubMed 11163211
